The record followed here is article PMC2699419 (2007).

In assay [1] the target is T1, GM-CSF receptor alpha chain (Balb/c form, Asp227; on Ba/F3 cells expressing beta chain) (Mus musculus, UniProt Q00941).
T1 chain: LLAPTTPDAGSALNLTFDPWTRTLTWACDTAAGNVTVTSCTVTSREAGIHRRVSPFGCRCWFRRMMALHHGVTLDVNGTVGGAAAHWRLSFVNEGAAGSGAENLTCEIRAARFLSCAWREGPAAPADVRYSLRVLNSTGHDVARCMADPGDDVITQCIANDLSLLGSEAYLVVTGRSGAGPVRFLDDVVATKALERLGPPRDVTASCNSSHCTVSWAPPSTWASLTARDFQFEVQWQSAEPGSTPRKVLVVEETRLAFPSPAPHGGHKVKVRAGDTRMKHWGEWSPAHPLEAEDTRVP
Description: flow cytometry cell binding, non-linear regression.

The target in assay [2] is T2, GM-CSF receptor alpha chain (C57BL/6 form, Gly227; on Ba/F3 cells expressing beta chain) (Mus musculus, UniProt Q00941).
T2 chain: T1 chain
Nature of the assay: flow cytometry cell binding, non-linear regression. For orientation: A flow cytometer gives signals particle by particle.

B1: GM-CSF-Fc fusion (GM-Fc) (protein)
chain: APTRSPITVTRPWKHVEAIKEALNLLDDMPVTLNEEVEVVSNEFSFKKLTCVQTRLKIFEQGLRGNFTKLKGALNMTASYYQTYCPPTPETDCETQVTTYADFIDSLKTFLTDIPFECKKPGQK
modifications: GM-CSF fused to mutated human IgG1 Fc, Ba/F3 cells co-expressing beta chain
As to B1, the Kd was 15.6 nM in assay [1] and 19.6 nM in assay [2].

The Kd is a measure of binding affinity in units of concentration.
